Source: the Human Domainome abundance scans (Beltran et al. 2025)

B1: PMS1 protein homolog 1, residues 572 to 637; numbered along this chain, P54277 (parent)
chain: KKPMSASALFVQDHRPQFLIENPKTSLEDATLQIEELWKTLSEEEKLKYEEKATKDLERYNSQMKR
B2: TOX high mobility group box family member 3, residues 256 to 323; numbered along this chain, O15405 (parent)
chain: QKPVSAYALFFRDTQAAIKGQNPNATFGEVSKIVASMWDSLGEEQKQVYKRKTEAAKKEYLKALAAYR

Variants of: B1
Assay: abundance fitness (aPCA) (normalised: wild type 0, dead -1); higher = more abundant; growth selection in yeast, the domain comes from the species named
Conditions: Homo sapiens

Abundance fitness, by site and new letter:
M64: D -0.32 | L -0.133 | I -0.172 | C -0.205 | V 0.015 | T -0.142
K52: E -0.059 | D -0.357 | C -0.076 | P -0.38
S7: K 0.069 | L -0.087 | R 0.121 | M 0.235 | A 0.007 | F -0.108
D29: N -0.119
S26: Y -0.861 | Q -0.327 | E -0.317 | C -0.111 | V -0.654 | I -0.605 | L -0.538 | D -0.102 | A -0.229 | R -0.282
E35: F -0.251 | S -0.189 | I -0.33 | N -0.389 | C -0.274 | P -0.14
K46: T -0.432 | F -1.21 | H -0.353 | E -1.08 | M -0.508 | S -0.641 | N -1.37
E44: C -0.155 | M -0.408 | Y -0.317 | N -0.385 | A -0.077 | G -0.064
T40: N -0.086 | S -0.128 | M -0.165 | Y -0.387 | R -0.125 | A -0.294 | Q -0.094 | H -0.087
R66: L 0.012 | N 0.031 | P 0.082 | W -0.261 | C -0.113
Q63: D 0.079 | K 0.02 | G -0.093 | A 0.071 | H -0.21 | T -0.072 | S -0.207 | V -0.113 | Y -0.078 | P -0.262 | L -0.109 | M -0.109
T25: V 0.116 | P -0.627 | G -0.387 | A 0.042 | N -0.192
E45: H -0.123 | S -0.198 | T -0.214 | D -0.133 | Y -0.787 | Q -0.142 | P -0.811 | K -0.244
K39: H -0.205 | Q 0.017 | L -0.22 | W -0.507 | V -0.465
E43: M -0.039 | P -0.086 | I -0.133 | Y -0.095 | A 0.004 | R -0.025 | N 0.046 | K -0.236 | T 0.032
Q33: W -0.696 | M -0.283 | R -0.229
P16: I -0.224 | V -0.47 | G -0.244 | D 0.118 | W -0.421
F10: K -0.368 | E -0.483 | Q -0.466 | M -0.433 | V -0.812 | R -0.651
K48: L -0.081 | N -0.375 | S -0.135 | C 0.041 | G -0.28 | R -0.127 | V -0.008 | T -0.205 | P -0.09 | W -0.187 | H -0.426 | Q -0.178
K2: P -0.201 | Q -0.545 | H 0.115 | L -0.08
S62: V -0.078 | Y -0.104 | E -0.035
A30: Q -0.439 | V -0.29 | E -0.414 | R -0.666 | L -0.634
S42: V -0.56 | Q -0.322 | C -0.28 | W -1.34
A6: M -0.704 | T -0.646 | P -0.38 | C -0.281 | G -0.306 | S -0.195
Y60: V -0.083 | F 0.063 | I -0.315 | H -0.075 | R -0.07 | D 0.026 | P -0.109
D56: F -0.244 | P -0.423 | V -0.348 | A -0.049
L57: P -0.342 | C -0.084 | I -0.136 | K -0.123 | M 0.03 | N -0.224 | Q -0.115
Y49: W -0.013 | E -0.819 | R -0.516 | D -0.634 | L -0.92 | K -0.583 | T -0.614
A53: W -0.79 | F -0.212 | E -0.227 | M -0.387 | L -0.432
W38: T -0.343 | R -0.292 | V -0.504
K55: I -0.001 | C -0.086 | M -0.053 | S -0.067 | N -0.103 | R -0.076 | G -0.137
R59: F -0.079 | V -0.021 | C -0.121 | K -0.171 | I 0.088 | D 0.17 | E 0.05 | Q 0.087 | S -0.017
K65: V -0.068 | I -0.25
L47: F -0.085 | A 0.058 | D -0.157 | W -0.141 | P -0.975 | S -0.039 | R -0.091
R15: S -0.41 | V 0.033 | H -0.227 | G -0.559
L27: A -0.127 | V -0.132 | Y -0.079
A8: V -0.457 | D -0.162
L41: S -0.069 | R -0.202 | F -0.733 | C -0.196 | W -0.617 | P -0.622 | I -0.202
E58: S -0.099
M4: A -0.072 | W -0.485 | H -0.044 | P -0.064 | Y -0.091 | T -0.05
K1: G -0.225 | S -0.602
N61: F -0.515 | I -0.464 | L -0.333 | P -0.197 | K 0.007 | R -0.15 | M -0.128
L9: G -0.308 | F -0.131
E51: K -0.156 | A -0.088 | T -0.057
T54: I -0.186 | V -0.12
L37: K 0.116 | T -0.123 | E -0.359 | W -0.386
S5: C -0.333
D13: G -0.844 | N -0.556
L32: D -0.283 | G -0.261 | I -0.172

Variants of: B2
Assay: as above
Conditions: Homo sapiens

Abundance fitness: each site, then its substitutions
Q1: A -0.474 | C -0.362 | F -0.088 | G 0.107 | H 0.119 | I -0.035 | K 0.247 | L -0.124 | M 0.137 | N 0.271 | R -0.087 | S -0.386 | T 0.012 | W -0.282 | Y 0.123
K2: A -0.264 | C -0.434 | D -0.311 | E -0.464 | F -0.083 | G -0.344 | H -0.012 | I -0.003 | L -0.428 | M -0.335 | N -0.005 | P -0.267 | Q -0.337 | R -0.273 | S 0.069 | T -0.294 | V -0.201 | W -0.781
P3: A -0.213 | C -0.342 | D 0.375 | E -0.199 | F 0.125 | G 0.033 | H -0.068 | I -0.228 | K -0.035 | L -0.145 | M -0.296 | N -0.163 | Q -0.292 | R -0.157 | S -0.052 | T -0.142 | V -0.14 | Y -0.332
V4: A -0.202 | C -0.097 | E 0.155 | F -0.148 | G -0.005 | H -0.182 | I 0.091 | M 0.159 | N 0.02 | P -0.001 | Q -0.073 | R -0.109 | S -0.112 | T -0.073 | W -0.331 | Y -0.24
S5: A -0.314 | C -0.074 | D 0.101 | E -0.022 | G -0.091 | I -0.94 | K -0.166 | N 0.115 | P -0.458 | Q -0.527 | R -0.348 | V -0.693 | W -0.491
A6: C -0.372
